Legend:
Experiment in all cases: cell-based or functional assay
[1] = biological target: HIV Env, isolate 1012_11_TC21_3257 (HIV)
[2] = biological target: HIV Env, isolate 1054_07_TC4_1499 (HIV)
[3] = biological target: HIV Env, isolate AC10.0.29 (HIV)
[4] = biological target: HIV Env, isolate CAAN5342.A2 (HIV)
[5] = biological target: HIV Env, isolate RHPA4259.7 (HIV)
[6] = biological target: HIV Env, isolate WITO4160.33 (HIV)
[7] = biological target: HIV Env, isolate 249MB10 (HIV)
[8] = biological target: HIV Env, isolate Ce0393_C3 (HIV)
[9] = biological target: HIV Env, isolate Ce0682_E4 (HIV)
[10] = biological target: HIV Env, isolate Ce1172_H1 (HIV)
[11] = biological target: HIV Env, isolate Ce2060_G9 (HIV)
[12] = biological target: HIV Env, isolate T263-8 (HIV)
[13] = biological target: HIV Env, isolate Du156.12 (HIV)
[14] = biological target: HIV Env, isolate Du172.17 (HIV)
[15] = biological target: HIV Env, isolate HIV-16055-2.3 (HIV)
[16] = biological target: HIV Env, isolate ZM109F.PB4 (HIV)
[17] = biological target: HIV Env, isolate ZM53M.PB12 (HIV)
[18] = biological target: HIV Env, isolate 3817.v2.c59 (HIV)
[19] = biological target: HIV Env, isolate 6811.v7.c18 (HIV)
[20] = biological target: HIV Env, isolate X1193_C1 (HIV)
[21] = biological target: HIV Env, isolate X2088_C9 (HIV)

Binder | IC80 (µg/ml) with constrains [1] [µg/mL] | IC80 (µg/ml) with constrains [2] [µg/mL] | IC80 (µg/ml) with constrains [3] [µg/mL] | IC80 (µg/ml) with constrains [4] [µg/mL] | IC80 (µg/ml) with constrains [5] [µg/mL] | IC80 (µg/ml) with constrains [6] [µg/mL] | IC80 (µg/ml) with constrains [7] [µg/mL] | IC80 (µg/ml) with constrains [8] [µg/mL] | IC80 (µg/ml) with constrains [9] [µg/mL] | IC80 (µg/ml) with constrains [10] [µg/mL] | IC80 (µg/ml) with constrains [11] [µg/mL] | IC80 (µg/ml) with constrains [12] [µg/mL] | IC80 (µg/ml) with constrains [13] [µg/mL] | IC80 (µg/ml) with constrains [14] [µg/mL] | IC80 (µg/ml) with constrains [15] [µg/mL] | IC80 (µg/ml) with constrains [16] [µg/mL] | IC80 (µg/ml) with constrains [17] [µg/mL] | IC80 (µg/ml) with constrains [18] [µg/mL] | IC80 (µg/ml) with constrains [19] [µg/mL] | IC80 (µg/ml) with constrains [20] [µg/mL] | other results
ePGDM9 (antibody, V domains shown) VH: QAQLVQSGPEVRKPGTSVKVSCKNPGNTLTTYDLHWVRQVPGQGLQWMGWISHEGDKKVIVERFKAKVTIDWDRSTNTAYLQLSGLTSEDTAVYYCAKGSKHRLRDYALYDEDGALNWAVDVDYLANLEFWGQGTAVTVSS VL: DIVLTQSPLSLSVTPGESASISCKSSQSLIHGDRNNYLAWYVQKPGRSPQLLIDLASERASGVPDRFSGSGSRKDFTLKISRVETEDVGTYYCMQGRESPWTFGQGTKVDIK | 0.167 | > 100 | 0.298 | 70.1 | 0.578 | 0.009 | 0.028 | 0.017 | 0.022 | 0.108 | 0.538 | 0.06 | 0.016 | 3.46 | 0.006 | 0.106 | 0.026 | 0.64 | > 100 | 0.158 | IC80 (µg/ml) with constrains [21]: > 100 µg/mL
ePGDM13 (antibody, V domains shown) VH: QAQLVQSGPEVRKPGTSVKVSCKNPGNTLTTYDLHWVRQVPGQGLQWMGWISHEGDKKVIVERFKAKVTIDWDRSTNTAYLQLSGLTSEDTAVYYCAKGSKHRLRDYALYDEDGALNWAVDVDYLANLEFWGQGTAVTVSS VL: DIVLTQSPLSLSVTPGESASISCKSSHSLQHGDRNNYLAWYVQKPGRSPQLLLDLASERASGVPDRFSGSGSEKDFTLKISRVETEDVGTYYCMQGRESPWTFGQGTKVDIK | 0.26 | > 100 | 0.776 | > 100 | 1.43 | 0.013 | 0.13 | 0.022 | 0.043 | 0.242 | 0.071 | 0.101 | 0.026 | 6 | 0.011 | 0.196 | 0.022 | 55.9 | > 100 | 0.381 | IC80 (µg/ml) with constrains [21]: > 100 µg/mL
ePGDM5 (antibody, V domains shown) VH: QAQLVQSGPEVRKPGTSVKVSCKNPGNTLTTYDLHWVRQVPGQGLQWMGWISHEGDKKVIVERFKAKVTIDWDRSTNTAYLQLSGLTSEDTAVYYCAKGSKHRLRDYALYDEDGALNWAVDVDYLANLEFWGQGTAVTVSS VL: DFVLTQSPLSLSVTPGESASISCKSDHSLQHGDRNNYLAWYVQKPGRSPQLLIDLASERASGVPDRFSGSGSRKDFTLKIDRVEAEDVGTYYCMQGRESPWTFGQGTKVDIK | 0.305 | > 100 | 1.1 | > 100 | 1.86 | 0.015 | 0.045 | 0.063 | 0.021 | 0.065 | 0.044 | 0.076 | 0.026 | 5.98 | 0.007 | 0.121 | 0.022 | 0.929 | > 100 | 0.156 | IC80 (µg/ml) with constrains [21]: > 100 µg/mL
PGDM1400 (antibody, V domains shown) VH: QVHLTQSGPEVRKPGTSVKVSCKAPGNTLKTYDLHWVRSVPGQGLQWMGWISHEGDKKVIVERFKAKVTIDWDRSTNTAYLQLSGLTSGDTAVYYCAKGSKHRLRDYALYDDDGALNWAVDVDYLSNLEFWGQGTAVTVSS VL: DFVLTQSPHSLSVTPGESASISCKSSHSLIHGDRNNYLAWYVQKPGRSPQLLIYLASSRASGVPDRFSGSGSDKDFTLKISRVETEDVGTYYCMQGRESPWTFGQGTKVDIK | 0.303 | > 100 | 2.19 | > 100 | 1.96 | 0.013 | 0.085 | 0.037 | 0.037 | 0.872 | 0.099 | 0.081 | 0.025 | 21.7 | 0.013 | 0.39 | 0.034 | > 100 | > 100 | 0.374 | IC80 (µg/ml) with constrains [21]: > 100 µg/mL
